The text below walks through data of publication PMC12028538, “The Characterization of the Purine Nucleoside Phosphorylase from Agaricus bisporus and Its Potential Application in Reducing Purine Content in Beer” (Journal of Fungi, 2025).

Substrate in the series: OC[C@H]1O[C@@H](n2cnc3c(O)ncnc32)[C@H](O)[C@@H]1O
The series is described as follows: HPLC of hypoxanthine formed, Michaelis-Menten fit. In kind it is biochemical, Agaricus bisporus. Particulars: phosphorolysis, potassium phosphate co-substrate (50 mM in the standard assay), pH 7.0, 60 °C, 0–16 mM inosine, b52 prints the unit as µmol.

B1: AbPNP (Agaricus bisporus var. burnettii JB137-S8) (protein)
chain: MKTNILSTVEYIRSQLPPELQQPRVGIVCGSGLSGLAGIIQNIHTIPYANIPGFGTSTVPGHRSELAFGLLGKNGVPVVAMLGRFHFYEGHPLSTVVYPIRVMARLGITEILITNAAGSLNPDIPTGTIVVVHDHIAFPGMAGTNPLMGPQTSPEHPRFLALSDAYSPSLRRLLFLAAHQLSLSKSALAEGTYAWVSGPNYETPAEGILLRSIGVDVVGMSTVPEVLVAREEGLKVMVLSLVTNLVVIPPSYKSIREEVEAELAGQSFVTPEEQVVSHDEVLAVGKEKAEVIKSLVQRVVELLS
notes: N-terminal 6xHis tag; codon-optimized gene in pPIC9K, Pichia pastoris GS115, Ni-NTA purified
Turning to B1, the Km is 7.10 µM and the turnover number (kcat) came out at 14.38 s⁻¹.

For orientation: Km means the substrate concentration at which the rate is half of its maximum. By kcat is commonly meant the maximal rate divided by the concentration of active sites.
